Results taken from paper PMC5394233, “Structural and functional analysis of the human POT1-TPP1 telomeric complex” (Nature Communications, 2017).

B1: human TPP1(PBD), residues 255-337 (domain or fragment)
chain: SQLLDEMREDQEHQGALVCLAESCLTLEGPCTAPPVTHWAASRCKATGEAVYTVPSSMLCISENDQLILSSLGPCQRTQGPEL

Experiments:
[1] = target: human POT1C (330-634) Q623H (human) (UniProt Q9NUX5); experiment: ITC; MicroCal iTC200; 100 uM TPP1(PBD) injected into the cell with 10 uM POT1C; 25 C; 25 mM Hepes pH 7.5, 0.1 M KCl, 5% glycerol, 1 mM TCEP; 16 injections of 2.47 ul; proteins purified separately
[2] = target: human POT1C (330-634) R477T (human) (UniProt Q9NUX5); experiment: as above
[3] = target: human POT1C (330-634) C591W (human) (UniProt Q9NUX5); experiment: as above
[4] = target: human POT1C (330-634) A532P (human) (UniProt Q9NUX5); experiment: as above
[5] = target: human POT1C (330-634) P446Q (human) (UniProt Q9NUX5); experiment: as above
[6] = target: human POT1C (330-634) P475L (human) (UniProt Q9NUX5); experiment: as above
[7] = target: human POT1C (330-634) L343F (human) (UniProt Q9NUX5); experiment: as above
human POT1C (330-634) L343F (human), sequence (Q9NUX5 330-634 L343F): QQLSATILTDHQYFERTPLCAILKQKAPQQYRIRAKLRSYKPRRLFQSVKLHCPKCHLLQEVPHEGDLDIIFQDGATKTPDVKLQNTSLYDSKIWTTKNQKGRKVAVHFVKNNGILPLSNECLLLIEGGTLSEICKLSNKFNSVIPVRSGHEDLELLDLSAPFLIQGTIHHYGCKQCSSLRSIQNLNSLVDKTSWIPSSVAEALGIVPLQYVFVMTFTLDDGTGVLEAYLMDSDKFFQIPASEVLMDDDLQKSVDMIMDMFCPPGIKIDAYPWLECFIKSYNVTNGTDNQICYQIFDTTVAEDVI

[8] = target: human POT1 C-terminus (POT1C), residues 330-634, wild type (human) (UniProt Q9NUX5); experiment: as above
[9] = target: T1, human POT1C (residues 330-634) Q623H (human, UniProt Q9NUX5 330-634, Q623H); experiment: ITC; 100 uM TPP1(PBD) injected into the cell with 10 uM POT1C; 25 °C; 25 mM Hepes pH 7.5, 0.1 M KCl, 5% glycerol, 1 mM TCEP; 16 injections of 2.47 ul; three independent experiments; conditions: both partners purified
T1 construct: POT1, human, C-terminal portion (OB-fold and HJR domain), residues 330-634, with the germline melanoma-associated mutation Q623H; PDB 5UN7 holds the wild-type parent with the same limits; The methods describe tag cleavage by TEV for the co-purified complex; For ITC the proteins were purified separately; also called POT1C Q623H; source: E. coli ScarabXpress T7 lac, purified (Ni-NTA, Poros HS/HQ, …)
T1 sequence (looked up): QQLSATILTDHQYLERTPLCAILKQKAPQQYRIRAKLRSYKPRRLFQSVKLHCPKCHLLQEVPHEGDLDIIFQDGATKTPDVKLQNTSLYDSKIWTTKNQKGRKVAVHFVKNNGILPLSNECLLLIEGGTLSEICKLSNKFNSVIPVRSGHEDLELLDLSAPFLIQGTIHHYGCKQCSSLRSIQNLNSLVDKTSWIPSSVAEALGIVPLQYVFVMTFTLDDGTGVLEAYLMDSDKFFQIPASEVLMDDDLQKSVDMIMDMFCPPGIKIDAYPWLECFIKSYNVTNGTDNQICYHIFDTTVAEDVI

Molecule | Kd [1] [nM] | Kd [2] [nM] | Kd [3] [nM] | Kd [4] [nM] | Kd [5] [nM] | Kd [6] [nM] | Kd [7] [nM] | Kd [8] [nM] | Kd [9] [nM]
human TPP1 POT1-binding domain, TPP1(PBD), residues 255-337 (from UniProt Q96AP0 255-337) (domain or fragment) | 471 | 123 | 870 | 117 | 289 | 164 | 114 | 120 | 
B1 |  |  |  |  |  |  |  |  | 472
